Measured values reported in IntAct's records for PubMed 31515488.

B1: Putative RNA-binding protein Luc7-like 2 (Homo sapiens), Q9Y383 (parent)
chain: MSAQAQMRAMLDQLMGTSRDGDTTRQRIKFSDDRVCKSHLLNCCPHDVLSGTRMDLGECLKVHDLALRADYEIASKEQDFFFELDAMDHLQSFIADCDRRTEVAKKRLAETQEEISAEVAAKAERVHELNEEIGKLLAKVEQLGAEGNVEESQKVMDEVEKARAKKREAEEVYRNSMPASSFQQQKLRVCEVCSAYLGLHDNDRRLADHFGGKLHLGFIEIREKLEELKRVVAEKQEKRNQERLKRREEREREEREKLRRSRSHSKNPKRSRSREHRRHRSRSMSRERKRRTRSKSREKRHRHRSRSSSRSRSRSHQRSRHSSRDRSRERSKRRSSKERFRDQDLASCDRDRSSRDRSPRDRDRKDKKRSYESANGRSEDRRSSEEREAGEI
partner: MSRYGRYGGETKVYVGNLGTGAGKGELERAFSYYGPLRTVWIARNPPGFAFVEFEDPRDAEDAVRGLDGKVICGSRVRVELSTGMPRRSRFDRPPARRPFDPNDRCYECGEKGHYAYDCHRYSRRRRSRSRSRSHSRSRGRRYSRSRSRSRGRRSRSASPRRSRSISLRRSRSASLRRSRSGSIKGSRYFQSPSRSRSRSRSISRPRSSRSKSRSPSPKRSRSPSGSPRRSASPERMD
B2: Nuclear protein AMMECR1 (Homo sapiens), Q9Y4X0 (parent)
chain: MAAGCCGVKKQKLSSSPPSGSGGGGGASSSSHCSGESQCRAGELGLGGAGTRLNGLGGLTGGGSGSGCTLSPPQGCGGGGGGIALSPPPSCGVGTLLSTPAAATSSSPSSSSAASSSSPGSRKMVVSAEMCCFCFDVLYCHLYGYQQPRTPRFTNEPYPLFVTWKIGRDKRLRGCIGTFSAMNLHSGLREYTLTSALKDSRFPPMTRDELPRLFCSVSLLTNFEDVCDYLDWEVGVHGIRIEFINEKGSKRTATYLPEVAKEQGWDHIQTIDSLLRKGGYKAPITNEFRKTIKLTRYRSEKMTLSYAEYLAHRQHHHFQNGIGHPLPPYNHYS
partner: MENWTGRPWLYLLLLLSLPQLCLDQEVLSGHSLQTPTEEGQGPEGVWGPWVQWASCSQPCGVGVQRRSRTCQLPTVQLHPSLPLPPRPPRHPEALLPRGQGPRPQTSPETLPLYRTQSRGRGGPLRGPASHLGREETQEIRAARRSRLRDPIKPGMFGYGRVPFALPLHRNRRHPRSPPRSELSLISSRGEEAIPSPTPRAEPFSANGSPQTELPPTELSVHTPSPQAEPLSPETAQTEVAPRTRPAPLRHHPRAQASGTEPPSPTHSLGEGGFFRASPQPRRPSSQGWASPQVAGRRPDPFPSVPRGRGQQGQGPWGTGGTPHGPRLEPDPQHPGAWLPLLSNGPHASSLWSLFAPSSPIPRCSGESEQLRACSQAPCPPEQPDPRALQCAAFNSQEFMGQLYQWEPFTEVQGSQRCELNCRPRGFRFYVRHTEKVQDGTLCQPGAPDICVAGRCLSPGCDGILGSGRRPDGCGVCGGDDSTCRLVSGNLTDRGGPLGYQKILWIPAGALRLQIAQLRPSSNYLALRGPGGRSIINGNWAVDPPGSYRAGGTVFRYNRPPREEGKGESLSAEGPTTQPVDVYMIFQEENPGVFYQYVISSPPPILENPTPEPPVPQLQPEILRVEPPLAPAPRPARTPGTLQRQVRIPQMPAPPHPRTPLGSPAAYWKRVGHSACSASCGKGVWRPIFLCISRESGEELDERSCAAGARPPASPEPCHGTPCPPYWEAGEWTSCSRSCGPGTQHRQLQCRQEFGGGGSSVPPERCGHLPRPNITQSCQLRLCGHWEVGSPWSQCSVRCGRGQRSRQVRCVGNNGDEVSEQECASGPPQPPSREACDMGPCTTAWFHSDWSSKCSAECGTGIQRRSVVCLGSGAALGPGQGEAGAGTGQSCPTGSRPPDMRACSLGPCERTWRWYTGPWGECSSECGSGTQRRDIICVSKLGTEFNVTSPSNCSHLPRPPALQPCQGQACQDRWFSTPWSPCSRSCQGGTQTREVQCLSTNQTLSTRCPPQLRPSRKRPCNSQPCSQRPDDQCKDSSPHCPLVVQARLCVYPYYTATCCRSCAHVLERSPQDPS
B3: Inactive peptidyl-prolyl cis-trans isomerase FKBP6 (Homo sapiens), O75344 (parent)
chain: MGGSALNQGVLEGDDAPGQSLYERLSQRMLDISGDRGVLKDVIREGAGDLVAPDASVLVKYSGYLEHMDRPFDSNYFRKTPRLMKLGEDITLWGMELGLLSMRRGELARFLFKPNYAYGTLGCPPLIPPNTTVLFEIELLDFLDCAESDKFCALSAEQQDQFPLQKVLKVAATEREFGNYLFRQNRFYDAKVRYKRALLLLRRRSAPPEEQHLVEAAKLPVLLNLSFTYLKLDRPTIALCYGEQALIIDQKNAKALFRCGQACLLLTEYQKARDFLVRAQKEQPFNHDINNELKKLASCYRDYVDKEKEMWHRMFAPCGDGSTAGES
partner: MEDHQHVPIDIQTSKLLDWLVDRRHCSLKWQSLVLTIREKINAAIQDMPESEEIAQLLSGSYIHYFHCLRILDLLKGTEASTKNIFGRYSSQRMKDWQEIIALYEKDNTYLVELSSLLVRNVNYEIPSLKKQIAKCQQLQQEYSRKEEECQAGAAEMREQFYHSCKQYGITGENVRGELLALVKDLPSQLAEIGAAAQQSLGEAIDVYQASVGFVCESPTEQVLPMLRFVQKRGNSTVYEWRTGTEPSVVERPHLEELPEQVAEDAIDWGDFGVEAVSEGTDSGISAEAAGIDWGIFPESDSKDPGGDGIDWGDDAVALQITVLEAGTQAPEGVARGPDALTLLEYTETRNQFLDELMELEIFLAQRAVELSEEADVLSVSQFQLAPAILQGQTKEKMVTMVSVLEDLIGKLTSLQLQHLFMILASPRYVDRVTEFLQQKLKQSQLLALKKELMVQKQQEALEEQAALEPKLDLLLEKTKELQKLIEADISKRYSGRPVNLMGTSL
B4: Maspardin (Homo sapiens), Q9NZD8 (parent)
chain: MGEIKVSPDYNWFRGTVPLKKIIVDDDDSKIWSLYDAGPRSIRCPLIFLPPVSGTADVFFRQILALTGWGYRVIALQYPVYWDHLEFCDGFRKLLDHLQLDKVHLFGASLGGFLAQKFAEYTHKSPRVHSLILCNSFSDTSIFNQTWTANSFWLMPAFMLKKIVLGNFSSGPVDPMMADAIDFMVDRLESLGQSELASRLTLNCQNSYVEPHKIRDIPVTIMDVFDQSALSTEAKEEMYKLYPNARRAHLKTGGNFPYLCRSAEVNLYVQIHLLQFHGTKYAAIDPSMVSAEELEVQKGSLGISQEEQ
partner: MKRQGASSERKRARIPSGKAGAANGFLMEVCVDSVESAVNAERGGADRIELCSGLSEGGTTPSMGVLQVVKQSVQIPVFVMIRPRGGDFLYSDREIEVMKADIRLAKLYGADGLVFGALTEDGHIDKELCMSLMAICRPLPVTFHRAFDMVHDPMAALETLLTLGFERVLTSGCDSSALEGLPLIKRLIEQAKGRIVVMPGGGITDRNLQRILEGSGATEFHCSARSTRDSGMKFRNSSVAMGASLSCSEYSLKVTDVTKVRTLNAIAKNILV

Variants of: B1
Details: with srsf7_human SRSF7, Q16629

Variant | effect of a mutation on the interaction
K368Q | with no effect

Variants of: B2
Details: with atl4_human ADAMTSL4, Q6UY14

Variant | effect of a mutation on the interaction
R207G | with no effect

Variants of: B3
Details: with ck5p3_human CDK5RAP3, Q96JB5

Variant | effect of a mutation on the interaction
R175Q | with no effect
H287N | with no effect

Variants of: B4
Details: with cutc_human CUTC

Variant | effect of a mutation on the interaction
A180T | with no effect
